Where “and” joins values, the source holds several entries; their conditions need not be identical. Identical values can stand only once.
Columns and labels:
[1] = molecular target: T1, human insulin receptor extracellular domain (HIR ECD) (human, UniProt P06213 28-956, limits assumed); test: ELISA, HIR ECD plated; normalised with MW 150 kDa
T1 construct: extracellular domain; Plated on 96-well dishes in the ELISA
Description: (§1) The COS-derived HIR Ab-HEXA fusion protein (also designated HIRMAb-HEXA), following purification with protein A affinity chromatography, was assessed for purity by reducing sodium dodecysulfate polyacrylamide gel electrophoresis (SDS-PAGE) as shown in FIG. 10. Only the HC and LC proteins are detected for either the HIRMAb alone or the HIRMAb-HEXA fusion protein. For the HIRMAb alone the higher molecular weight (MW) band is the HC and the lower MW band is the LC. For the HIRMAb-HEXA fusion protein, the higher MW band is the […]. The identity of the fusion protein was verified by Western blotting using primary antibodies to either human IgG (FIG. 11, left panel) or human HEXA (FIG. 11, right panel). The molecular weight (MW) of the HIRMAb-HEXA heavy and light chains are estimated by linear regression based on the migration of the MW standards. […] The affinity of the fusion protein for the HIR extracellular domain (ECD) was determined with an ELISA. […] The HIR ECD was plated on Nunc-Maxisorb 96 well dishes and the binding of the HIR Ab, or the HIR Ab-HEXA fusion protein, to the HIR ECD was detected with a secondary antibody, followed by binding with an alkaline phosphatase detector reagent. […]

[2] = molecular target: T1, human insulin receptor extracellular …; test: ELISA, recombinant HIR ECD plated; normalised with MW 150 kDa
Description: (§2) The potency of the CHO-derived fusion protein was assessed with the HIR ECD binding ELISA. The affinity of the fusion protein for the HIR extracellular domain (ECD) was determined with an ELISA. Recombinant HIR ECD was plated on Nunc-Maxisorb 96 well dishes and the binding of the HIR Ab, or the HIR Ab-PPT1 fusion protein, to the HIR ECD was detected with a secondary antibody, followed by binding with an alkaline phosphatase detector reagent. […] The MW of the HIR Ab is 150 kDa, and the MW of the HIR Ab-fusion protein is 246 kDa.

[3] = molecular target: T1, human insulin receptor extracellular …; test: ELISA, recombinant HIR ECD plated, secondary antibody and alkaline phosphatase detection; CHO-derived HIR Ab
Description: as §2, with “The” for “The potency of the CHO-derived fusion protein was assessed with the HIR ECD binding ELISA. The”, “Ab-ASM” for “Ab-PPT1”, “320” for “246”

[4] = molecular target: T1, human insulin receptor extracellular …; test: ELISA, HIR ECD plated, biotinylated goat anti-human IgG detection
[5] = molecular target: T1, human insulin receptor extracellular …; test: ELISA, HIR ECD plated (HIR receptor assay)
[6] = molecular target: T1, human insulin receptor extracellular …; test: ELISA, HIR ECD plated, secondary antibody and alkaline phosphatase detection
Description: as §1

[7] = molecular target: T1, human insulin receptor extracellular …; test: ELISA, recombinant HIR ECD plated, secondary antibody and alkaline phosphatase detection
Description: as §2

[8] = molecular target: T1, human insulin receptor extracellular …; test: ELISA, recombinant HIR ECD plated, secondary antibody and alkaline phosphatase detection; CHO-derived protein
Description: as §2, with “The” for “The potency of the CHO-derived fusion protein was assessed with the HIR ECD binding ELISA. The”, “Ab-ASM” for “Ab-PPT1”, “320” for “246”
as §2

[9] = molecular target: T1, human insulin receptor extracellular …; test: ELISA, recombinant HIR ECD plated; CHO-derived protein; normalised with MW 246 kDa
Description: as §2

[10] = molecular target: T1, human insulin receptor extracellular …; test: ELISA, HIR ECD plated; CHO-derived protein
Description: The estimated MW of the hetero-tetrameric HIRMAb-HEXA fusion protein shown in FIG. 2 is 318 kDa, based on migration in the SDS-PAGE of the Western blot. The affinity of the fusion protein for the HIR extracellular domain (ECD) was determined with an ELISA. CHO cells permanently transfected with the HIR ECD were grown in serum free media (SFM), and the HIR ECD was purified with a wheat germ agglutinin affinity column, as previously described in Coloma et al. (2000) Pharm Res, 17:266-274. The HIR ECD was plated on Nunc-Maxisorb 96 well dishes and the binding of the HIR Ab, or the HIR Ab-HEXA fusion protein, to the HIR ECD was detected with a secondary antibody, followed by binding with an alkaline phosphatase detector reagent. […] The MW of the HIR Ab is 150 kDa, and the MW of the HIR Ab-fusion protein is 318 kDa.
The CHO line producing the HIR Ab-HEXA fusion protein was generated from CHO cells following 2 rounds of DC as described above. The accession cell line was propagated in a 2L shake flask in SFM on an orbital shaker and the CHO-derived fusion protein was purified by protein A affinity chromatography. […] The potency of the CHO-derived fusion protein as assessed with the HIR ECD binding ELISA, as described above.

[11] = molecular target: T1, human insulin receptor extracellular …; test: ELISA, HIR ECD plated; COS-derived protein; normalised with MW 318 kDa
Description: as §1

[12] = molecular target: T1, human insulin receptor extracellular …; test: ELISA, HIR ECD plated, secondary antibody and alkaline phosphatase detection; COS-derived protein
Description: as §1

[13] = molecular target: T1, human insulin receptor extracellular …; test: ELISA, recombinant HIR ECD plated; CHO-derived protein; normalised with MW 320 kDa
Description: as §2, with “The” for “The potency of the CHO-derived fusion protein was assessed with the HIR ECD binding ELISA. The”, “Ab-ASM” for “Ab-PPT1”, “320” for “246”

B1: chimeric HIR Ab (antibody to the human insulin receptor) (antibody, human IgG1, kappa)
heavy: not shown
light: DIQMTQSPSSLSASLGERVSLTCRASQDIGGNLYWLQQGPDGTIKRLIYATSSLDSGVPKRFSGSRSGSDYSLTISSLESEDFVDYYCLQYSSSPWTFGGGTKMEIKRTVAAPSVFIFPPSDEQLKSGTASVVCLLNNFYPREAKVQWKVDNALQSGNSQESVTEQDSKDSTYSLSSTLTLSKADYEKHKVYACEVTHQGLSSPVTKSFNRGEC
notes: also called HIRMAb; chimeric HIRMAb
EC50 [1]: 0.23 nM | EC50 [2]: 0.32 nM and 0.26 nM | EC50 [3]: 0.047 mg/L | EC50 [4]: 0.77 nM | EC50 [5]: 0.25 nM | EC50 [6]: 0.034 mg/L | EC50 [7]: 0.039 mg/L

B2: HIR Ab-LL-PPT1 fusion protein (31-amino acid linker) (antibody, human IgG1, human IgG3, kappa)
heavy: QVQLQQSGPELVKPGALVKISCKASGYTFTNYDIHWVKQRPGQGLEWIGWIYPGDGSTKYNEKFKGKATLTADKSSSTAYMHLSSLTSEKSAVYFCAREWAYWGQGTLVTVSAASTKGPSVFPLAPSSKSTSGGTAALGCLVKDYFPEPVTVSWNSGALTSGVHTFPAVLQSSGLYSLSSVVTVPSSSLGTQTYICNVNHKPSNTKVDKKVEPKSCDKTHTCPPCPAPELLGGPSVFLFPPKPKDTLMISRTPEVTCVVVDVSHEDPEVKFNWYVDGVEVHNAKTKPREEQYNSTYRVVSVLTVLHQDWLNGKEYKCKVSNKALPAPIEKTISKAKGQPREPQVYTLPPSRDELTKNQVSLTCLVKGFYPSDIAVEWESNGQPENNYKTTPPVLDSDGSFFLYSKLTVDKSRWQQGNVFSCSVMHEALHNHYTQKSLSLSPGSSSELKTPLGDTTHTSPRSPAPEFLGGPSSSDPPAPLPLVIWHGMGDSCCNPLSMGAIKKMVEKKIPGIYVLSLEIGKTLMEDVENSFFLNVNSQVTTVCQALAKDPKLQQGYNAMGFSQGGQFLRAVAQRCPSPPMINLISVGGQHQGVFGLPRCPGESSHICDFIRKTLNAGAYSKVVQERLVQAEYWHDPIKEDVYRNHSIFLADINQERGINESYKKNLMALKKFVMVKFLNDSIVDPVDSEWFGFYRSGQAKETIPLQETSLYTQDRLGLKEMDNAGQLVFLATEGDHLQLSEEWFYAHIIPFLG
light: DIQMTQSPSSLSASLGERVSLTCRASQDIGGNLYWLQQGPDGTIKRLIYATSSLDSGVPKRFSGSRSGSDYSLTISSLESEDFVDYYCLQYSSSPWTFGGGTKMEIKRTVAAPSVFIFPPSDEQLKSGTASVVCLLNNFYPREAKVQWKVDNALQSGNSQESVTEQDSKDSTYSLSSTLTLSKADYEKHKVYACEVTHQGLSSPVTKSFNRGEC
notes: Hetero-tetramer, MW 246 kDa; The ELISA used CHO-derived protein; also called HIR Ab-PPT1; HIRMAb-PPT1
EC50 [8]: 0.094 mg/L | EC50 [9]: 0.38 nM

B3: HIR Ab-HEXA fusion protein (antibody, human IgG1, human IgG3, kappa)
heavy: not shown
light: DIQMTQSPSSLSASLGERVSLTCRASQDIGGNLYWLQQGPDGTIKRLIYATSSLDSGVPKRFSGSRSGSDYSLTISSLESEDFVDYYCLQYSSSPWTFGGGTKMEIKRTVAAPSVFIFPPSDEQLKSGTASVVCLLNNFYPREAKVQWKVDNALQSGNSQESVTEQDSKDSTYSLSSTLTLSKADYEKHKVYACEVTHQGLSSPVTKSFNRGECSSSELKTPLGDTTHTSPRSPAPEFLGGPSSSLWPWPQNFQTSDQRYVLYPNNFQFQYDVSSAAQPGCSVLDEAFQRYRDLLFGSGSWPRPYLTGKRHTLEKNVLVVSVVTPGCNQLPTLESVENYTLTINDDQCLLLSETVWGALRGLETFSQLVWKSAEGTFFINKTEIEDFPRFPHRGLLLDTSRHYLPLSSILDTLDVMAYNKLNVFHWHLVDDPSFPYESFTFPELMRKGSYNPVTHIYTAQDVKEVIEYARLRGIRVLAEFDTPGHTLSWGPGIPGLLTPCYSGSEPSGTFGPVNPSLNNTYEFMSTFFLEVSSVFPDFYLHLGGDEVDFTCWKSNPEIQDFMRKKGFGEDFKQLESFYIQTLLDIVSSYGKGYVVWQEVFDNKVKIQPDTIIQVWREDIPVNYMKELELVTKAGFRALLSAPWYLNRISYGPDWKDFYIVEPLAFEGTPEQKALVIGGEACMWGEYVDNTNLVPRLWPRAGAVAERLWSNKLTSDLTFAYERLSHFRCELLRRGVQAQPLNVGFCEQEFEQT
notes: also called HIRMAb-HEXA; HIR Ab LC-HEXA + HIR Ab HC
EC50 [10]: 0.122 mg/L | EC50 [11]: 0.35 nM | EC50 [12]: 0.112 mg/L

B4: HIR Ab-ASM fusion protein (antibody, human IgG1, human IgG3, kappa)
heavy: not shown
light: DIQMTQSPSSLSASLGERVSLTCRASQDIGGNLYWLQQGPDGTIKRLIYATSSLDSGVPKRFSGSRSGSDYSLTISSLESEDFVDYYCLQYSSSPWTFGGGTKMEIKRTVAAPSVFIFPPSDEQLKSGTASVVCLLNNFYPREAKVQWKVDNALQSGNSQESVTEQDSKDSTYSLSSTLTLSKADYEKHKVYACEVTHQGLSSPVTKSFNRGECSSSELKTPLGDTTHTSPRSPAPEFLGGPSSSHPLSPQGHPARLHRIVPRLRDVFGWGNLTCPICKGLFTAINLGLKKEPNVARVGSVAIKLCNLLKIAPPAVCQSIVHLFEDDMVEVWRRSVLSPSEACGLLLGSTCGHWDIFSSWNISLPTVPKPPPKPPSPPAPGAPVSRILFLTDLHWDHDYLEGTDPDCADPLCCRRGSGLPPASRPGAGYWGEYSKCDLPLRTLESLLSGLGPAGPFDMVYWTGDIPAHDVWHQTRQDQLRALTTVTALVRKFLGPVPVYPAVGNHESTPVNSFPPPFIEGNHSSRWLYEAMAKAWEPWLPAEALRTLRIGGFYALSPYPGLRLISLNMNFCSRENFWLLINSTDPAGQLQWLVGELQAAEDRGDKVHIIGHIPPGHCLKSWSWNYYRIVARYENTLAAQFFGHTHVDEFEVFYDEETLSRPLAVAFLAPSATTYIGLNPGYRVYQIDGNYSGSSHVVLDHETYILNLTQANIPGAIPHWQLLYRARETYGLPNTLPTAWHNLVYRMRGDMQLFQTFWFLYHKGHPPSEPCGTPCRLATLCAQLSARADSPALCRHLMPDGSLPEAQSLWPRP
notes: Hetero-tetramer, MW 320 kDa; The ELISA used CHO-derived protein; also called HIRMAb-ASM; HIR Ab LC-ASM + HIR Ab HC
EC50 [8]: 0.299 mg/L | EC50 [13]: 0.93 nM

Source: patent publication US20240252667A1 (ARMAGEN, published 2024)
